The source of these data is paper PMC4976313, “ZCF32, a fungus specific Zn(II)2 Cys6 transcription factor, is a repressor of the biofilm development in the human pathogen Candida albicans”.

The target of this data set is T1, Zcf32 ZFN-MBP (Candida albicans, UniProt Q5ANG4 1-116).
T1 sequence: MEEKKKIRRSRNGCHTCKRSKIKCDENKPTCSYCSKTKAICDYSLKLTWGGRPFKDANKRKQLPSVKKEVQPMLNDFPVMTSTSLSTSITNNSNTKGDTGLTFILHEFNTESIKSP
As to the kind of experiment: EMSA; EMSA: 1X HEPES buffer (20 mM HEPES pH 7.8, 150 mM KCl, 0.1% BSA, 10% glycerol), on ice 30 min, 6% native PAGE. To be noted: protein: recombinant; tags: MBP (pMAL-c2x); chain copies: 2; label: 32P 5' end; blunt. In general terms: Mobility shift assays separate free from complexed probe on a gel.

B1: O2 (dsDNA)
DNA 1: CCGATATAGCCGATGCAT
DNA 2: ATGCATCGGCTATATCGG
Regarding B1, the binding result is “binds”.

B2: O1 (dsDNA)
DNA 1: TACCCGATATAGCCGATG
DNA 2: CATCGGCTATATCGGGTA
B2: the binding result was “binds”.
